Experimental data as given in article PMC2192707.

Target: T1, calnexin (UniProt P35564)
T1 sequence: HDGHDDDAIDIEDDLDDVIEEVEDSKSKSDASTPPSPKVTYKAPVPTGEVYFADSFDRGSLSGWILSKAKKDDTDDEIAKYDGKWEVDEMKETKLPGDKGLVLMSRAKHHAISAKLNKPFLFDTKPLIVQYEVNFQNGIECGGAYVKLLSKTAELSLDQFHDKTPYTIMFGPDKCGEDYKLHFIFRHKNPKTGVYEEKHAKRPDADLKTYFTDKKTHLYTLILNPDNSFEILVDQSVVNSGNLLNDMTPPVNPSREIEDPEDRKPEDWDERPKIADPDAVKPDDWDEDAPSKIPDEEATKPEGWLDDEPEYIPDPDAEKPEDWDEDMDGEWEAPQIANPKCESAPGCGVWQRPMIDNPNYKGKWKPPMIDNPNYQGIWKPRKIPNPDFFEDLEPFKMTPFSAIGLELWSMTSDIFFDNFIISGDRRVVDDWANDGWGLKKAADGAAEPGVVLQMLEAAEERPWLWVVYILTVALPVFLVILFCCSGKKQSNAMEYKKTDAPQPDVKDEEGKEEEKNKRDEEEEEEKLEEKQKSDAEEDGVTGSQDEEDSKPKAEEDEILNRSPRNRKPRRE
Conditions: co-IP

| Substance | percent of heterodimers associated with calnexin |
| --- | --- |
| H-2Db class I heavy chain (endogenous in EL4) | 85% ofD b heterodimers |
| H-2Kb class I heavy chain | ~45% ofK b heterodimers |
